This is an account of results in patent publication US7261893 (Pfizer, dated 2007).

A word on the IC50: it is the concentration that inhibits the measured activity by half. As a reminder, the EC50 is the concentration giving half of the maximal effect.

Values joined by “and” are separate entries in the source; they are usually repeats but may differ in a detail not shown here. Equal entries are not always repeated.

The chains are these.
B1: Myo29 human IgG1 antibody (antibody, V domains shown)
VH: QVQLVQSGAEVKKPGASVKVSCKASGYTFTSYYMHWVRQAPGQGLEWMGIINPSGGSTSYAQKFQGRVTMTRDTSTSTVYMELSSLRSEDTAVYYCARDENWGFDPWGQGTLVTVSS
VL: SYELTQPPSVSVSPGQTATITCSGHALGDKFVSWYQQGSGQSPVLVIYDDTQRPSGIPGRFSGSNSGNTATLTISGTQAMDEADYFCQAWDSSFVFGGGTKVTVLG
B2: Myo28 scFv (scFv)
scFv: QVTLKESGGGLVQPGGSLRLSCAASGFTFSRYVINWVRQAPGKGLEWVSAISVTGGSTAYADSVRGRFTISRDNSKNTLYLQMNSLRAEDTAVYYCTKGQWERGSYYFDYWGRGTLVTVSSGGGGSGGGGSGGGGSAQSVLTQPPSVSGAPGQRVTISCTGSSSNIGDGYDVHWYQQLPGTAPKLLIYGNSHRPSGVPDRFSGSKSDTSASLAITGLQVEDEADYFCHSYDGSVSGWIFGGGTKLTVLGAAAHHHHHH
notes: tags from the vector are not described; also called scFv of Myo28
B3: Myo22 scFv (scFv)
scFv: EVQLLESGGGLVQPGGSLRLSCAASGFTFSSYAMSWVRQAPGKGLEWVSAISGSGGSTYYADSVKGRFTISRDNSKNTLYLQMNSLRAEDTAVYYCERMGPCTGGSCYDTLGNWGRGTLVTVSSGGGGSGGGGSGGGGSAQSVLTQPPSVSGAPGQRVTISCTGSSSNIGAGYDVHWYQQLPGAAPKLLIRGNGNRPSGVPDRFSVSKSGYSASLAITGLQPADEGVYYCQSYDSSLSGSKVFGQGTKLTVLGAAAHHHHHH
notes: tags from the vector are not described; also called scFv of Myo22
B4: mature human BMP-11 (ligand, UniProt O95390 299-407, looked up)
chain: NLGLDCDEHSSESRCCRYPLTVDFEAFGWDWIIAPKRYKANYCSGQCEYMFMQKYPHTHLVQQANPRGSAGPCCTPTKMSPINMLYFNDKQQIIYGKIPGMVVDRCGCS
notes: mature; also called GDF-11; biotinylated BMP-11
B5: Myo28 human IgG1 antibody (antibody, V domains shown)
VH: QVTLKESGGGLVQPGGSLRLSCAASGFTFSRYVINWVRQAPGKGLEWVSAISVTGGSTAYADSVRGRFTISRDNSKNTLYLQMNSLRAEDTAVYYCTKGQWERGSYYFDYWGRGTLVTVSS
VL: QSVLTQPPSVSGAPGQRVTISCTGSSSNIGDGYDVHWYQQLPGTAPKLLIYGNSHRPSGVPDRFSGSKSDTSASLAITGLQVEDEADYFCHSYDGSVSGWIFGGGTKLTVLG
B6: Myo29 scFv (scFv)
scFv: QVQLVQSGAEVKKPGASVKVSCKASGYTFTSYYMHWVRQAPGQGLEWMGIINPSGGSTSYAQKFQGRVTMTRDTSTSTVYMELSSLRSEDTAVYYCARDENWGFDPWGQGTLVTVSSGGGGSGGGGSGGGGSALSYELTQPPSVSVSPGQTATITCSGHALGDKFVSWYQQGSGQSPVLVIYDDTQRPSGIPGRFSGSNSGNTATLTISGTQAMDEADYFCQAWDSSFVFGGGTKVTVLGAAAHHHHHH
notes: tags from the vector are not described; also called scFv of Myo29

Test [1] concerns the target B4. Nature of the test: inhibition of biotinylated BMP-11 (10 ng/ml) binding to plate-coated ActRIIB-Fc, ELISA, Myo29 preincubated with the ligand. (In general: An ELISA detects its analyte on a solid surface through an enzyme-linked reagent.)
Test [2] addresses T1, mature human GDF-8 (growth and differentiation factor-8) (human, UniProt O14793 267-375).
T1 construct: also called myostatin; mature GDF-8
Nature of the test: inhibition of biotinylated GDF-8 (10 ng/ml) binding to plate-coated ActRIIB-Fc, ELISA, Myo29 preincubated with the ligand.

Test [3] deals with T1, mature human GDF-8 (growth and …). Nature of the test: cell-based or functional assay.
For test [4] the target is unchanged. Briefly: inhibition of bioGDF-8 binding to plate-coated ActRIIB-Fc, purified scFv titrated, DELFIA TRF.
The target of test [5] is T2, Recombinant ActRIIB-Fc chimera (R&D Systems, Cat. No. 339-RB/CF) (UniProt Q13705 19-134).
T2 construct: Bought reagent, coated on the plate; also called ActRIIB receptor; Fc part of the bought chimera not given
Briefly: ELISA, biotinylated ligand titrated on plate-coated ActRIIB-Fc, streptavidin-HRP.

T2 sequence (Q13705 19-134, change not shown): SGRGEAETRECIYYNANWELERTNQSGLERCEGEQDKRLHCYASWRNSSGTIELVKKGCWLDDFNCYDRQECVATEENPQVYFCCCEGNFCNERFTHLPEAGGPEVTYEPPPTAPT

Turning to B1, the IC50 in test [1] and in test [2] was 0.2 to 0.4 nM each time. Moreover, in test [3], the “pGL3(CAGA)12 reporter gene assay (RGA) in A204 cells, GDF-8 at 20 ng/ml, IC50” value is 15 ng/ml to 30 ng/ml (2×) and 0.1 nM to 0.2 nM (2×).

As to B2, in test [4], the concentration for half-maximal inhibition (IC50) was 1.7 nM.

As for B3, the IC50 in test [4] amounted to 60 nM.

Take B4: the EC50 in test [5] was determined as 0.04 mg/L.

For the molecule B5, the “RGA and ActRIIB binding assays (not said which), IC50” value in test [3] fell in the range of 0.2 to 0.35 nM.

The molecule B6 came in with an IC50 in test [4] of 2.4 nM.
